Assay results from PMC7016029.
Like-named read-outs stand apart in the source and are kept apart here.

Key:
VEGFR-1 Fc chimera [1] = target: T1, VEGFR-1 Fc chimera (UniProt P17948 27-758); assay: SPR
VEGFR-1 Fc chimera [2] = target: T1, VEGFR-1 Fc chimera; assay: SPR; remark: listed apart in the source

T1 sequence (P17948 27-758, change not shown): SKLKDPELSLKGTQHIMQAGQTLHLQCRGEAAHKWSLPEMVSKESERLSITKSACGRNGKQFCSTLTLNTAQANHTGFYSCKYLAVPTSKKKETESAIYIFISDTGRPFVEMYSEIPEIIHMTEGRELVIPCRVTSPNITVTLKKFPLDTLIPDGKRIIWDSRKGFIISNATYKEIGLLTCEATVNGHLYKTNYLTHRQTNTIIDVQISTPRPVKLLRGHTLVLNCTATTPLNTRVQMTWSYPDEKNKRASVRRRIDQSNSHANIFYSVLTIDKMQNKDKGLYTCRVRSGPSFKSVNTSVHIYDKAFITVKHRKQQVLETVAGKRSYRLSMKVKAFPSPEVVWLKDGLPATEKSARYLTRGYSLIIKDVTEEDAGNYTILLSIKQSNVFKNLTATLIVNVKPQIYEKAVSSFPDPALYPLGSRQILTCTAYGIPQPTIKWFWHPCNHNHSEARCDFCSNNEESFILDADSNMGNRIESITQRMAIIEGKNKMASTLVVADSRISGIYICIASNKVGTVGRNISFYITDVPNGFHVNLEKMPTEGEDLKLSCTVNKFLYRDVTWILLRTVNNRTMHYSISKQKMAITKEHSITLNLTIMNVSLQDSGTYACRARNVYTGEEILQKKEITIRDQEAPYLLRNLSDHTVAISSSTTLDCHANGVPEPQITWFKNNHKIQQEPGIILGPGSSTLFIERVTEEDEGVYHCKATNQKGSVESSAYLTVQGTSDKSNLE

B1: Apt01 (structured_DNA)
DNA: GTCGTGTTTGTTGTTGTTTTCATTTTTGCGGCCC
Binder B1 has a Kd (VEGFR-1 Fc chimera [1]) of 3.3 nM.

B2: Apt02 (structured_DNA)
DNA: GCTGATAGGATGGGTTGTAGGTCTAGGGGGGGGCC
B2 showed a Kd (VEGFR-1 Fc chimera [2]) of 1.5 nM.
